Laboratory results published in patent US9359622B2, “Method for biotechnological production of dihydrochalcones” (Symrise AG, priority 2012, dated 2016).

Columns and labels:
[1] = Temperature stability of CHI; format: biochemical
From the text: (§1) For the purposes of the present invention especially preferred is the use of a chalcone isomerase, having one, several or all the following characteristics and/or a temperature and pH stability according to Tables 1-3:
(§2) A photometric determination allowed—for further investigation of the CHI activity—the reduction over time in the concentration of naringenin chalcone in a cell-free protein crude extract to be observed.

[2] = Activity measurements for determination of the pH optimum of CHI; format: biochemical
From the text: as §1, §2

[3] = Activity measurements for determination of the temperature optimum for CHI; format: biochemical
From the text: as §1, §2

[4] = substrate: O=C(/C=C/c1ccc(O)cc1)c1c(O)cc(O)cc1O; test: Characterisation of the enzyme activity of the CHI following expression of the vector pET28b_CHI in E. coli; format: biochemical, Eubacterium ramulus DSM 16296; details: other: CHI expressed from pET28b_CHI in E. coli; substrate not given
From the text: Following expression of for example pET28b_CHI in E. coli (see above) CHI can be established both in the soluble and in the insoluble fractions.
Following purification with for example anion exchange chromatography, hydrophobic interaction chromatography, size exclusion chromatography and/or Resource Q purification the CHI can be isolated for characterization (FIG. 5 provides examples of the results of the individual purification steps following expression of the vector pET28b_CHI in E. coli).
The values in the table in Table 6 show (further) results of the chalcone isomerase activity of the expressed CHI, obtained by photometric determination (at 368 nm) in relation to the degradation of naringenin chalcone (to form […]).
as §2

B1: Eubacterium ramulus DSM 16296 chalcone isomerase (CHI), wild type, SEQ ID NO:3 (Eubacterium ramulus) (protein)
chain: MADFKFEPMRSLIYVDCVSEDYRPKLQRWIYKVHIPDSISQFEPYVTKYAFYPSFPIPPQGDRFGYARMQLTEHHWLVSDLDPRLEIKAIAETFPMDVLVWQGQIPAAAHTDAQIDSDGDAGNAARKSNNAEGNPFIFAFLPMWWEKDLKGKGRTIEDGANYRFNMTIGFPEGVDKAEGEKWLFEKVVPILQAAPECTRVLASAVKKDINGCVMDWVLEIWFENQSGWYKVMVDDMKALEKPSWAQQDAFPFLKPYHNVCSAAVADYTPSNNLANYRGYITMR
Work on B1 yielded a Spec. activity ([1]; 25° C., 0 h) of 188.56 U/mg, a Spec. activity ([1]; 25° C., 0.5 h) of 136.70 U/mg and a Spec. activity ([1]; 25° C., 1 h) of 141.10 U/mg. For the same molecule, the Spec. activity ([1]; 25° C., 2 h) was 152.08 U/mg, the Spec. activity ([1]; 25° C., 4 h) was 152.48 U/mg and the Spec. activity ([1]; 25° C., 6 h) was 146.46 U/mg. The Spec. activity ([1]; 25° C., 24 h) was 116.37 U/mg, the Spec. activity ([1]; 30° C., 0 h) was 188.56 U/mg and the Spec. activity ([1]; 30° C., 0.5 h) was 169.66 U/mg. For the same molecule, the Spec. activity ([1]; 30° C., 1 h) was 158.01 U/mg, the Spec. activity ([1]; 30° C., 2 h) was 154.62 U/mg and the Spec. activity ([1]; 30° C., 4 h) was 145.77 U/mg. It also gave a Spec. activity ([1]; 30° C., 6 h) of 147.18 U/mg, a Spec. activity ([1]; 30° C., 24 h) of 119.96 U/mg and a Spec. activity ([1]; 37° C., 0 h) of 188.56 U/mg. The Spec. activity ([1]; 37° C., 0.5 h) was 155.20 U/mg, the Spec. activity ([1]; 37° C., 1 h) was 164.39 U/mg and the Spec. activity ([1]; 37° C., 2 h) was 156.17 U/mg. The Spec. activity ([1]; 37° C., 4 h) was 156.84 U/mg, the Spec. activity ([1]; 37° C., 6 h) was 156.21 U/mg and the Spec. activity ([1]; 37° C., 24 h) was 93.93 U/mg. For the same molecule, the Spec. activity ([1]; 41° C., 0 h) was 188.56 U/mg, the Spec. activity ([1]; 41° C., 0.5 h) was 151.96 U/mg and the Spec. activity ([1]; 41° C., 1 h) was 154.22 U/mg. For the same molecule, the Spec. activity ([1]; 41° C., 2 h) was 149.12 U/mg, the Spec. activity ([1]; 41° C., 4 h) was 146.59 U/mg and the Spec. activity ([1]; 41° C., 6 h) was 149.39 U/mg. The Spec. activity ([1]; 41° C., 24 h) was 93.30 U/mg, the Spec. activity ([1]; 44° C., 0 h) was 188.56 U/mg and the Spec. activity ([1]; 44° C., 0.5 h) was 158.12 U/mg. The Spec. activity ([1]; 44° C., 1 h) was 150.15 U/mg, the Spec. activity ([1]; 44° C., 2 h) was 129.07 U/mg and the Spec. activity ([1]; 44° C., 4 h) was 115.07 U/mg. For the same molecule, the Spec. activity ([1]; 44° C., 6 h) was 83.35 U/mg, the Spec. activity ([1]; 50° C., 0 h) was 188.56 U/mg and the Spec. activity ([1]; 50° C., 0.5 h) was 50.49 U/mg. For the same molecule, the Spec. activity ([1]; 50° C., 1 h) was 3.05 U/mg, the Spec. activity ([1]; 50° C., 2 h) was 2.35 U/mg and the Spec. activity ([1]; RT (23° C.), 0 h) was 188.56 U/mg. The Spec. activity ([1]; RT (23° C.), 0.5 h) was 145.67 U/mg, the Spec. activity ([1]; RT (23° C.), 1 h) was 148.67 U/mg and the Spec. activity ([1]; RT (23° C.), 2 h) was 144.05 U/mg. The Spec. activity ([1]; RT (23° C.), 4 h) was 146.39 U/mg, the Spec. activity ([1]; RT (23° C.), 6 h) was 141.06 U/mg and the Spec. activity ([1]; RT (23° C.), 24 h) was 125.68 U/mg. The Spec. activity ([2]; pH value 6.13) was 82.07 U/mg, the Spec. activity ([2]; pH value 6.35) was 163.43 U/mg and the Spec. activity ([2]; pH value 6.4) was 177.59 U/mg. The Spec. activity ([2]; pH value 6.55) was 169.79 U/mg, the Spec. activity ([2]; pH value 6.8) was 185.86 U/mg and the Spec. activity ([2]; pH value 6.93) was 175.37 U/mg. For the same molecule, the Spec. activity ([2]; pH value 7.12) was 174.86 U/mg, the Spec. activity ([2]; pH value 7.45) was 173.01 U/mg and the Spec. activity ([2]; pH value 7.7) was 168.79 U/mg. The Spec. activity ([2]; pH value 8) was 152.55 U/mg, the Spec. activity ([3]; 30° C.) was 373.47 U/mg and the Spec. activity ([3]; 37° C.) was 795.04 U/mg. The Spec. activity ([3]; 40° C.) was 887.73 U/mg, the Spec. activity ([3]; 45° C.) was 1133.38 U/mg and the Spec. activity ([3]; 50° C.) was 748.66 U/mg. It also gave a Spec. activity ([3]; RT (23° C.)) of 158.39 U/mg, a Km [4] of 36.83 µM and a Vmax [4] of 107 µmol/min/mg. The kcat [4] was 417 s⁻¹ and the kcat/Km [4] was 1.13e+07 M⁻¹ s⁻¹.
